B1: Gβ5 (natural protein, mouse (endogenous in striatum), UniProt P62881-2 1-353, looked up)
chain: MATDGLHENETLASLKSEAESLKGKLEEERAKLHDVELHQVAERVEALGQFVMKTRRTLKGHGNKVLCMDWCKDKRRIVSSSQDGKVIVWDSFTTNKEHAVTMPCTWVMACAYAPSGCAIACGGLDNKCSVYPLTFDKNENMAAKKKSVAMHTNYLSACSFTNSDMQILTASGDGTCALWDVESGQLLQSFHGHGADVLCLDLAPSETGNTFVSGGCDKKAMVWDMRSGQCVQAFETHESDVNSVRYYPSGDAFASGSDDATCRLYDLRADREVAIYSKESIIFGASSVDFSLSGRLLFAGYNDYTINVWDVLKGSRVSILFGHENRVSTLRVSPDGTAFCSGSWDHTLRVWA
B2: Gαq (natural protein, mouse (endogenous in striatum), UniProt P21279 1-359, looked up)
chain: MTLESIMACCLSEEAKEARRINDEIERQLRRDKRDARRELKLLLLGTGESGKSTFIKQMRIIHGSGYSDEDKRGFTKLVYQNIFTAMQAMIRAMDTLKIPYKYEHNKAHAQLVREVDVEKVSAFENPYVDAIKSLWNDPGIQECYDRRREYQLSDSTKYYLNDLDRVADPSYLPTQQDVLRVRVPTTGIIEYPFDLQSVIFRMVDVGGQRSERRKWIHCFENVTSIMFLVALSEYDQVLVESDNENRMEESKALFRTIITYPWFQNSSVILFLNKKDLLEEKIMYSHLVDYFPEYDGPQRDAQAAREFILKMFVDLNPDSDKIIYSHFTCATDTENIRFVFAAVKDTILQLNLKEYNLV

Molecular target: T1, RGS9-2 (mouse (endogenous in striatum), UniProt O54828-1 1-675)
T1 sequence (looked up): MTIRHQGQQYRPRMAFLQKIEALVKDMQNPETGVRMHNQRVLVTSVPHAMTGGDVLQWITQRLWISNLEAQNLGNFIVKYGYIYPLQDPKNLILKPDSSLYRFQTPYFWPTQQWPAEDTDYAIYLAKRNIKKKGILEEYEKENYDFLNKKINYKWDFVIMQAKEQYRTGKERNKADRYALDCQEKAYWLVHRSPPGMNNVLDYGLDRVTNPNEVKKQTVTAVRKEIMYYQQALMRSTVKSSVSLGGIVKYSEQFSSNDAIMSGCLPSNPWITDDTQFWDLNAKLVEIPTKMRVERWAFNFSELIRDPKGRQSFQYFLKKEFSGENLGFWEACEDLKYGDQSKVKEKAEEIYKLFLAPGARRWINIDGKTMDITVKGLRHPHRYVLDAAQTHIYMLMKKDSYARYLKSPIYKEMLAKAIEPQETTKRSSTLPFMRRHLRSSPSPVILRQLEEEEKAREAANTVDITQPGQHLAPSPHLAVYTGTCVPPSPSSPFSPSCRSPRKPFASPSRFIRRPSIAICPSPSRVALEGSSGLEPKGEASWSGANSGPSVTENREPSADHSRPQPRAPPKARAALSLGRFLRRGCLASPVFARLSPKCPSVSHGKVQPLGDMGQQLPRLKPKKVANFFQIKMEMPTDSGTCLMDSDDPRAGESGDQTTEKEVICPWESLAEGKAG
Experiment: co-IP

Row | Binder | co-IP signal after chronic morphine, % compared with vehicle-treated mice [%]
1 | B1 | 171
2 | B2 | 216

Source: paper PMC3412365 (The Journal of neuroscience : the official journal of the …, 2011)
